Legend:
[1] = target: T1, human BCMA on cells (human, UniProt Q02223 1-184); test: flow cytometry, NCI-H929 cells
T1 construct: whole, on cells; also called CHO-hBCMA cells; U266 cells
T1 sequence (looked up): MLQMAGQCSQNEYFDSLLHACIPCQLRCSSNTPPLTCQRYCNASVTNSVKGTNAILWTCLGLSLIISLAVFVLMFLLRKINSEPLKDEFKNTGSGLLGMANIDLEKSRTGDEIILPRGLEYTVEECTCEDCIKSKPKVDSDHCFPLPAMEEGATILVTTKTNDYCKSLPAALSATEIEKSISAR
Experimental: (§1) NCI-H929 cells (BCMA+++), MM1S cells (BCMA++), and RPMI-8226 cells (BCMA+) in the logarithmic growth phase were taken, adjusted to a cell density of 5×10⁶-10×10⁶ cells/mL using RPMI medium (Hyclon, catalog No. SH30809.01) containing 2% FBS (fetal bovine serum), respectively, and seeded in a 96-well U-bottom cell culture plate (Costar, catalog No. 3799) at 50 μL per well. The test antibodies at different concentrations were prepared using the medium described above. […] The antibodies at different concentrations were added to the 96-well cell culture plate described above at 50 μL per well, mixed well and incubated at 4° C. for 1 h. The cells were washed with pre-cooled running buffer (MACS, catalog No. 130-091-221), and the supernatant was discarded. Pre-cooled fluorescent labeled goat anti-human IgG antibodies (Jackson, catalog No. 109-116-170) were added, and the cells were resuspended at 100 μL per well, mixed well and incubated at 4° C. for 30 min. After washing, 100 μL of pre-cooled running buffer was added to resuspend the cells. The cells were mixed well and collected while flowing on an Attune™ NxT flow cytometer, and the data was analyzed using Graphpad Prism5 software. FIGS. 7-9 and Table 11 show the binding ability of the anti-BCMA/anti-CD3 multispecific antibodies to NCI-H929 cells (BCMA+++), MM1S cells (BCMA++), and RPMI-8226 cells (BCMA+).

[2] = target: T1, human BCMA on cells; test: cell-based or functional assay
[3] = target: T2, human CD3e (Acro, Cat. No. CDE-H5223) (human, UniProt P07766 23-126); test: SPR (Biacore T200), antibody captured by anti-hIgG, human CD3e as analyte, 1:1 model
T2 construct: also called human CD3e protein; hCD3e
Experimental: (§2) The affinity of the test antibody for human CD3e or human BCMA protein was determined by Biacore T200 (GE) as follows:
(§3) The response signals were detected in real time using Biacore software, and association and dissociation curves were obtained. The buffer used in the experiment was Biacore universal buffer (137 mM NaCl, 2.7 mM KCl, 10 mM Na₂HPO₄.12H₂O, 1.8 mM KH₂PO₄. 0.05% surfactant P-20 (w/v), pH 7.4). […] The flow rate in the flow cell was at 50 μL/min, the association was performed for 240 s, the dissociation was performed for 1400 s, the regeneration was performed using 3 M MgCl (GE) for 60 s, and the baseline was stable. Results were obtained by calculation according to the affinity and kinetics 1:1 binding mode in biacore evaluation software.

[4] = target: T1, human BCMA on cells; test: cell-based or functional assay; remark: listed apart in the source
[5] = target: T1, human BCMA on cells; test: flow cytometry on RPMI-8226 cells, fluorescent goat anti-human IgG detection
Experimental: as §1

[6] = target: T1, human BCMA on cells; test: flow cytometry, MM1S cells
Experimental: as §1

[7] = target: T1, human BCMA on cells; test: cell-based or functional assay; remark: listed apart in the source
[8] = target: T3, T cell surface CD3 (human, UniProt P07766 23-207); test: flow cytometry, human CD3+ T cells
T3 construct: whole, on cells; also called CD3^+ T cells
Experimental: Human PBMC cells were sorted for CD3⁺ T cells using CD3 magnetic beads (Miltenyi, catalog No. 130-097-043): the cryopreserved PBMCs were thawed, and washed by centrifugation twice for counting. Running buffer (MACS, catalog No. 130-091-221) was added in a cell-to-buffer ratio of 10⁷:80 μL, CD3 beads were added in a cell-to-bead ratio of 10⁷:20 μL, and the mixture was mixed well and incubated at 4° C. for 15 min. The cells were washed with buffer in a cell-to-buffer ratio of 10⁷:1-2 mL. After centrifugation, the supernatant was discarded, and 500 μL of buffer was added to resuspend the cell pellet. The LS sorting column (Miltenyi, catalog No. 130-042-401) was placed on the MidiMACS Starting Kit (LS) magnetic rack (Miltenyi, catalog No. 130-091-051). After rinsing, the cell suspension was added and washed thrice. The LS sorting column was removed from the magnetic rack and placed on a clean centrifuge tube and 5 mL buffer was added to collect the sorted CD3⁺ T cells. After counting, the CD3⁺ T cells were adjusted to a cell density of 5×10⁶-10×10⁶ cells/mL using RPMI medium (Hyclone, catalog No. SH30809.01) containing 2% FBS (fetal bovine serum) and seeded in a 96-well U-bottom cell culture plate (Costar, catalog No. 3799) at 50 μL per well. The test antibodies at different concentrations were prepared using the medium described above. […] The antibodies at different concentrations were added to the 96-well cell culture plate described above at 50 μL per well, mixed well and incubated at 4° C. for 1 h. The cells were washed with pre-cooled running buffer (MACS, catalog No. 130-091-221), and the supernatant was discarded. Pre-cooled fluorescent labeled goat anti-human IgG antibodies (Jackson, catalog No. 109-116-170) were added, and the cells were resuspended at 100 μL per well, mixed well and incubated at 4° C. for 30 min. After washing, 100 μL of pre-cooled running buffer was added to resuspend the cells.

[9] = target: T4, human BCMA protein (human, UniProt Q02223 1-54, limits assumed); test: SPR (Biacore T200), antibody captured by anti-hIgG, human BCMA as analyte, 1:1 model
T4 construct: also called hBCMA; Antigen BCMA
T4 sequence (looked up): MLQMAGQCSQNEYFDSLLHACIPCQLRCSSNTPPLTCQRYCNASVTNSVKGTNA
Experimental: as §2, §3

T3 sequence (P07766 23-207): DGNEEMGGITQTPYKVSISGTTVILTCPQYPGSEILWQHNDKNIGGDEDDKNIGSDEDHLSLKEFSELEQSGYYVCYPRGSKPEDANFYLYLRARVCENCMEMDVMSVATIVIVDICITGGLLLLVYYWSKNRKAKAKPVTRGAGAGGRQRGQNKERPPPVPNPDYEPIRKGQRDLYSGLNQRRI
T2 sequence (P07766 23-126 limits assumed): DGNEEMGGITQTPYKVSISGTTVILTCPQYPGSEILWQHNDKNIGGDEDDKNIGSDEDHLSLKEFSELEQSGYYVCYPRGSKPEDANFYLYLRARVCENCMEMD

B1: anti-BCMA/anti-CD3 multispecific antibody PC2 (bispecific antibody, human IgG1)
chain 1: QVQLVESGGGLVQPGGSLRLSCAASGYSSNVACMAWYRQAPGKGLEWVATIVADFGTTNYAASVKGRFTISQDNSKNTVYLQMNSLRAEDTAVYYCAATQRGGIDWCDEINYWGQGTLVTVSSGEPKSSDKTHTCPPCPAPEAAGGPSVFLFPPKPKDTLMISRTPEVTCVVVDVSHEDPEVKFNWYVDGVEVHNAKTKPREEQYNSTYRVVSVLTVLHQDWLNGKEYKCKVSNKALAAPIEKTISKAKGQPREPQVCTLPPSREEMTKNQVSLSCAVKGFYPSDIAVEWESNGQPENNYKTTPPVLDSDGSFFLVSKLTVDKSRWQQGNVFSCSVMHEALHNHYTQKSLSLSPGK
chain 2: QVQLVESGGGLVQPGGSLRLSCAASGFTFNSACMGWFRQAPGKGREGVSRIETGYGGTVYADSVKGRFTISRDNSKNTVYLQMNSLRAEDTAVYYCAAKRSWCTPTWWHELDYNYWGQGTQVTVSSGGGGSELVVTQEPSLTTSPGGTVTLTCRSSTGAVTTSNYANWVQQKPGQAPRGLIGGTNKRAPGTPARFSGSLLGGKAALTITGVQPEDEAEYYCALWYSNLWVFGGGTKLTVLGGGGSGGGGSGGGGSEVQLVESGGGLVQPGGSLRLSCAASGFTFNTYAMNWVRQAPGKGLEWVARIRSKYNNYATYYADSVKDRFTISRDDSKNTAYLQMNNLKTEDTAMYYCVRHGNFGNSYVSWFAYWGQGTLVTVSSGEPKSSDKTHTCPPCPAPEAAGGPSVFLFPPKPKDTLMISRTPEVTCVVVDVSHEDPEVKFNWYVDGVEVHNAKTKPREEQYNSTYRVVSVLTVLHQDWLNGKEYKCKVSNKALAAPIEKTISKAKGQPREPQVYTLPPCREEMTKNQVSLWCLVKGFYPSDIAVEWESNGQPENNYKTTPPVLDSDGSFFLYSKLTVDKSRWQQGNVFSCSVMHEALHNRFTQKSLSLSPGK
notes: Trivalent; two chains; human IgG1 knobs-into-holes Fc
EC50 [1]: 1.03 nM | Top(MFI) [1]: 234000 MFI | Lysis EC50, NCI-H929 cells with human PBMCs (E:T 10:1, 24 h, LDH release) [2]: 0.527 nM | Maximum lysis rate, NCI-H929 cells with human PBMCs [2]: 38% | Kd [3]: 1.33 nM | Lysis EC50, MM1S cells with human PBMCs (E:T 10:1, 24 h, LDH release) [4]: 0.0605 nM | Maximum lysis rate, MM1S cells with human PBMCs [4]: 28% | EC50 (read off the curve) [5]: ~0.3 nM | EC50 [6]: 0.311 nM | Top(MFI) [6]: 115000 MFI | Lysis EC50, RPMI-8226 cells with human PBMCs (E:T 10:1, 24 h, LDH release) [7]: 0.0185 nM | Maximum lysis rate, RPMI-8226 cells with human PBMCs [7]: 39% | EC50 [8]: ~462 nM | Top(MFI) [8]: 37200 MFI | Kd [9]: 0.0185 nM
